Laboratory results from patent publication US20210395394A1.

Target: Pan-species-specific antigen Plasmodium Lactate DeHydrogenase (Pan-PLDH) protein
Test: indirect ELISA at four coating concentrations, KD calculated from half-maximal OD

Row | Binder | Kd
1 | WT 1-6 (antibody, mouse IgG2b, kappa, V domains shown) VH: QVQLQQPGAELVRPGASVKLSCKASGTSFTNYFMNWVKQRPGQGLEWIGMINPSDSETRLNQKFKDKATLTVDKSSSTAYMQLSSLTAEDSAVYYCARSGDFYTYYWDYWGQGTTLTVSS VL: DIQLTQSPASLSASVGETVTITCRGSGNIHNYIAWYQQKQGKSPQLLVYNAKTVADGVPSRFSGSGSGTQYSLKINSLQPEDFGSYYCQSFWSSYTFGGGTKLEIKR | 1560 pM
2 | Mutation 1-8 (antibody, mouse IgG2b, kappa, V domains shown) VH: QVQLQQPGAELVRPGASVKLSCKASGYSFTNYWMNWVKQRPGQGLEWIGMIHPSDSETRVNQKFKDKATLTVDKSSSTAYMQLSSLTAEDSAVYYCARSGDFYTTYFDYWGQGTTLTVSS VL: DIQLTQSPASLSASVGETVTITCRGTGNVHNYLAWYQQKQGKSPQLLVYNAKTIADGVPSRFSGSGSGTQYSLKINSLQPEDFGSYYCQYFWSTYTFGGGTKLEIKR | 481 pM
3 | WT 1-8 (antibody, mouse IgG2b, kappa, V domains shown) VH: QVQLQQPGAELVRPGASVKLSCKASGTSFTNYFMNWVKQRPGQGLEWIGMINPSDSETRVNQKFKDKATLTVDKSSSTAYMQLSSLTAEDSAVYYCAKSGEFYTSYWDYWGQGTTLTVSS VL: DIQLTQSPASLSASVGETVTITCRGSGNVHNYIAWYQQKQGKSPQLLVYNAKTIADGVPSRFSGSGSGTQYSLKINSLQPEDFGSYYCQSFWSSYTFGGGTKLEIKR | 1360 pM
4 | WT 1-9 (antibody, mouse IgG2b, kappa, V domains shown) VH: QVQLQQPGAELVRPGASVKLSCKASGSSFTNYFMNWVKQRPGQGLEWIGMINPSESETRINQKFKDKATLTVDKSSSTAYMQLSSLTAEDSAVYYCAKSGEFYTYYWDYWGQGTTLTVSS VL: DIQLTQSPASLSASVGETVTITCRGTGNVHNYIAWYQQKQGKSPQLLVYNARTLADGVPSRFSGSGSGTQYSLKINSLQPEDFGSYYCQTFWSSYTFGGGTKLEIKR | 621 pM
5 | Mutation 1-1 (antibody, mouse IgG2b, kappa, V domains shown) VH: QVQLQQPGAELVRPGASVKLSCKASGYSFTNYWMNWVKQRPGQGLEWIGMIHPSESETRLNQKFKDKATLTVDKSSSTAYMQLSSLTAEDSAVYYCAKSGDFYTYYFDYWGQGTTLTVSS VL: DIQLTQSPASLSASVGETVTITCRGTGNLHNYLAWYQQKQGKSPQLLVYNARTVADGVPSRFSGSGSGTQYSLKINSLQPEDFGSYYCQYFWSTYTFGGGTKLEIKR | 521 pM
6 | Mutation 1-10 (antibody, mouse IgG2b, kappa, V domains shown) VH: QVQLQQPGAELVRPGASVKLSCKASGTSFTNYWMNWVKQRPGQGLEWIGMIHPSESETRLNQKFKDKATLTVDKSSSTAYMQLSSLTAEDSAVYYCARSGEFYTYYFDYWGQGTTLTVSS VL: DIQLTQSPASLSASVGETVTITCRGTGNLHNYLAWYQQKQGKSPQLLVYNARTVADGVPSRFSGSGSGTQYSLKINSLQPEDFGSYYCQYFWSTYTFGGGTKLEIKR | 525 pM
7 | WT 1-7 (antibody, mouse IgG2b, kappa, V domains shown) VH: QVQLQQPGAELVRPGASVKLSCKASGSSFTNYFMNWVKQRPGQGLEWIGMINPSDSETRVNQKFKDKATLTVDKSSSTAYMQLSSLTAEDSAVYYCARSGEFYTSYWDYWGQGTTLTVSS VL: DIQLTQSPASLSASVGETVTITCRGTGNVHNYIAWYQQKQGKSPQLLVYNAKTLADGVPSRFSGSGSGTQYSLKINSLQPEDFGSYYCQYFWSSYTFGGGTKLEIKR | 757 pM
8 | Mutation 1-14 (antibody, mouse IgG2b, kappa, V domains shown) VH: QVQLQQPGAELVRPGASVKLSCKASGSSFTNYWMNWVKQRPGQGLEWIGMIHPSDSETRVNQKFKDKATLTVDKSSSTAYMQLSSLTAEDSAVYYCAKSGDFYTTYFDYWGQGTTLTVSS VL: DIQLTQSPASLSASVGETVTITCRGSGNVHNYLAWYQQKQGKSPQLLVYNAKTIADGVPSRFSGSGSGTQYSLKINSLQPEDFGSYYCQSFWSTYTFGGGTKLEIKR | 488 pM
9 | Mutation 1-7 (antibody, mouse IgG2b, kappa, V domains shown) VH: QVQLQQPGAELVRPGASVKLSCKASGSSFTNYWMNWVKQRPGQGLEWIGMIHPSDSETRLNQKFKDKATLTVDKSSSTAYMQLSSLTAEDSAVYYCARSGDFYTYYFDYWGQGTTLTVSS VL: DIQLTQSPASLSASVGETVTITCRGSGNIHNYLAWYQQKQGKSPQLLVYNAKTVADGVPSRFSGSGSGTQYSLKINSLQPEDFGSYYCQSFWSTYTFGGGTKLEIKR | 208 pM
10 | Mutation 1-2 (antibody, mouse IgG2b, kappa, V domains shown) VH: QVQLQQPGAELVRPGASVKLSCKASGTSFTNYWMNWVKQRPGQGLEWIGMIHPSESETRVNQKFKDKATLTVDKSSSTAYMQLSSLTAEDSAVYYCAKSGDFYTTYFDYWGQGTTLTVSS VL: DIQLTQSPASLSASVGETVTITCRGSGNVHNYLAWYQQKQGKSPQLLVYNARTLADGVPSRFSGSGSGTQYSLKINSLQPEDFGSYYCQTFWSTYTFGGGTKLEIKR | 338 pM
11 | Mutation 1-11 (antibody, mouse IgG2b, kappa, V domains shown) VH: QVQLQQPGAELVRPGASVKLSCKASGYSFTNYWMNWVKQRPGQGLEWIGMIHPSESETRVNQKFKDKATLTVDKSSSTAYMQLSSLTAEDSAVYYCARSGEFYTTYFDYWGQGTTLTVSS VL: DIQLTQSPASLSASVGETVTITCRGSGNLHNYLAWYQQKQGKSPQLLVYNARTIADGVPSRFSGSGSGTQYSLKINSLQPEDFGSYYCQTFWSTYTFGGGTKLEIKR | 465 pM
12 | Mutation 1-18 (antibody, mouse IgG2b, kappa, V domains shown) VH: QVQLQQPGAELVRPGASVKLSCKASGTSFTNYWMNWVKQRPGQGLEWIGMIHPSDSETRINQKFKDKATLTVDKSSSTAYMQLSSLTAEDSAVYYCARSGDFYTSYFDYWGQGTTLTVSS VL: DIQLTQSPASLSASVGETVTITCRGTGNIHNYLAWYQQKQGKSPQLLVYNAKTIADGVPSRFSGSGSGTQYSLKINSLQPEDFGSYYCQSFWSTYTFGGGTKLEIKR | 567 pM
13 | Mutation 1-13 (antibody, mouse IgG2b, kappa, V domains shown) VH: QVQLQQPGAELVRPGASVKLSCKASGTSFTNYWMNWVKQRPGQGLEWIGMIHPSDSETRLNQKFKDKATLTVDKSSSTAYMQLSSLTAEDSAVYYCAKSGDFYTYYFDYWGQGTTLTVSS VL: DIQLTQSPASLSASVGETVTITCRGTGNLHNYLAWYQQKQGKSPQLLVYNAKTLADGVPSRFSGSGSGTQYSLKINSLQPEDFGSYYCQTFWSTYTFGGGTKLEIKR | 531 pM
14 | Mutation 1-16 (antibody, mouse IgG2b, kappa, V domains shown) VH: QVQLQQPGAELVRPGASVKLSCKASGYSFTNYWMNWVKQRPGQGLEWIGMIHPSESETRLNQKFKDKATLTVDKSSSTAYMQLSSLTAEDSAVYYCAKSGEFYTYYFDYWGQGTTLTVSS VL: DIQLTQSPASLSASVGETVTITCRGSGNIHNYLAWYQQKQGKSPQLLVYNARTLADGVPSRFSGSGSGTQYSLKINSLQPEDFGSYYCQSFWSTYTFGGGTKLEIKR | 411 pM
15 | Mutation 1-3 (antibody, mouse IgG2b, kappa, V domains shown) VH: QVQLQQPGAELVRPGASVKLSCKASGTSFTNYWMNWVKQRPGQGLEWIGMIHPSDSETRINQKFKDKATLTVDKSSSTAYMQLSSLTAEDSAVYYCAKSGEFYTSYFDYWGQGTTLTVSS VL: DIQLTQSPASLSASVGETVTITCRGTGNVHNYLAWYQQKQGKSPQLLVYNAKTIADGVPSRFSGSGSGTQYSLKINSLQPEDFGSYYCQYFWSTYTFGGGTKLEIKR | 98 pM
16 | Mutation 1-4 (antibody, mouse IgG2b, kappa, V domains shown) VH: QVQLQQPGAELVRPGASVKLSCKASGYSFTNYWMNWVKQRPGQGLEWIGMIHPSDSETRLNQKFKDKATLTVDKSSSTAYMQLSSLTAEDSAVYYCAKSGEFYTYYFDYWGQGTTLTVSS VL: DIQLTQSPASLSASVGETVTITCRGSGNIHNYLAWYQQKQGKSPQLLVYNAKTVADGVPSRFSGSGSGTQYSLKINSLQPEDFGSYYCQTFWSTYTFGGGTKLEIKR | 596 pM
17 | Mutation 1-15 (antibody, mouse IgG2b, kappa, V domains shown) VH: QVQLQQPGAELVRPGASVKLSCKASGSSFTNYWMNWVKQRPGQGLEWIGMIHPSESETRINQKFKDKATLTVDKSSSTAYMQLSSLTAEDSAVYYCAKSGEFYTSYFDYWGQGTTLTVSS VL: DIQLTQSPASLSASVGETVTITCRGTGNVHNYLAWYQQKQGKSPQLLVYNARTVADGVPSRFSGSGSGTQYSLKINSLQPEDFGSYYCQTFWSTYTFGGGTKLEIKR | 470 pM
18 | Mutation 1-17 (antibody, mouse IgG2b, kappa, V domains shown) VH: QVQLQQPGAELVRPGASVKLSCKASGTSFTNYWMNWVKQRPGQGLEWIGMIHPSESETRVNQKFKDKATLTVDKSSSTAYMQLSSLTAEDSAVYYCAKSGEFYTTYFDYWGQGTTLTVSS VL: DIQLTQSPASLSASVGETVTITCRGTGNIHNYLAWYQQKQGKSPQLLVYNARTVADGVPSRFSGSGSGTQYSLKINSLQPEDFGSYYCQTFWSTYTFGGGTKLEIKR | 370 pM
19 | Mutation 1-6 (antibody, mouse IgG2b, kappa, V domains shown) VH: QVQLQQPGAELVRPGASVKLSCKASGTSFTNYWMNWVKQRPGQGLEWIGMIHPSDSETRINQKFKDKATLTVDKSSSTAYMQLSSLTAEDSAVYYCARSGDFYTSYFDYWGQGTTLTVSS VL: DIQLTQSPASLSASVGETVTITCRGTGNIHNYLAWYQQKQGKSPQLLVYNAKTLADGVPSRFSGSGSGTQYSLKINSLQPEDFGSYYCQTFWSTYTFGGGTKLEIKR | 664 pM
20 | Mutation 1-5 (antibody, mouse IgG2b, kappa, V domains shown) VH: QVQLQQPGAELVRPGASVKLSCKASGSSFTNYWMNWVKQRPGQGLEWIGMIHPSDSETRVNQKFKDKATLTVDKSSSTAYMQLSSLTAEDSAVYYCAKSGEFYTTYFDYWGQGTTLTVSS VL: DIQLTQSPASLSASVGETVTITCRGTGNIHNYLAWYQQKQGKSPQLLVYNAKTLADGVPSRFSGSGSGTQYSLKINSLQPEDFGSYYCQSFWSTYTFGGGTKLEIKR | 532 pM
21 | Mutation 1-9 (antibody, mouse IgG2b, kappa, V domains shown) VH: QVQLQQPGAELVRPGASVKLSCKASGSSFTNYWMNWVKQRPGQGLEWIGMIHPSESETRINQKFKDKATLTVDKSSSTAYMQLSSLTAEDSAVYYCARSGEFYTSYFDYWGQGTTLTVSS VL: DIQLTQSPASLSASVGETVTITCRGSGNVHNYLAWYQQKQGKSPQLLVYNARTLADGVPSRFSGSGSGTQYSLKINSLQPEDFGSYYCQSFWSTYTFGGGTKLEIKR | 616 pM
22 | Mutation 1-12 (antibody, mouse IgG2b, kappa, V domains shown) VH: QVQLQQPGAELVRPGASVKLSCKASGYSFTNYWMNWVKQRPGQGLEWIGMIHPSDSETRINQKFKDKATLTVDKSSSTAYMQLSSLTAEDSAVYYCAKSGDFYTSYFDYWGQGTTLTVSS VL: DIQLTQSPASLSASVGETVTITCRGSGNLHNYLAWYQQKQGKSPQLLVYNAKTVADGVPSRFSGSGSGTQYSLKINSLQPEDFGSYYCQYFWSTYTFGGGTKLEIKR | 118 pM
